One assay addresses T1, human serum albumin (human, UniProt P02768 25-609).
T1 construct: also called HSA; SA
Put plainly: SPR (ProteOn XPR36), target on GLC chip, DARPin as analyte. The text has this: (§1) For that, DARPin® protein #27, DARPin® protein #29, DARPin® protein #47 and DARPin® protein #48 and DARPin® protein #49, DARPin® protein #50, DARPin® protein #51, DARPin® protein #52, DARPin® protein #31, DARPin® protein #53, DARPin® protein #54, DARPin® protein #55, DARPin® protein #34, DARPin® protein #33, DARPin® protein #39 and DARPin® protein #36 were subcloned and expressed as described above into derivatives of the pQE30 (Qiagen) expression vector, containing an N-terminal His-tag, CD33, CD123 and/or CD70 binding ankyrin repeat domains, followed by a CD3 specific ankyrin repeat domain and for some constructs by a human serum albumin specific ankyrin repeat domain.
(§2) Briefly, biotinylated human CD70, CD123 and CD33 was diluted in PBST (PBS, pH 7.4 containing 0.005% Tween 20®) and coated on a GLC chip (BioRad) to a level of around 200, 460 and 450 resonance units (RU) respectively. HSA in NaOAc pH 5.0 was directly immobilized on the GLC chip to a level of 800 RU. Bio.CD70, bio. CD33 and bio. CD123 required to have Neutravidin coated first to a level of 6000 RU before the biotinylated targets could be applied. The interaction of the selected ankyrin repeat proteins and human CD70, CD123 and CD33 was then measured by injecting 300 μl running buffer (PBS, pH 7.4 containing 0.005% Tween 20®) containing serial dilutions of ankyrin repeat proteins covering a concentration range between 100 nM and 2.6 nM (100, 40, 16, 6.4 and 2.6 nM respectively) for multi-trace SPR measurements, with an association of 120 s and dissociation of 1200 s using a constant flow of 100 μl/min. The regeneration was performed using 30 μl of 4 mM Glycine pH 2. The signals (i.e. resonance unit (RU) values) of the interspots and a reference injection (i.e. injection of running buffer only) were subtracted from the RU traces obtained after injection of ankyrin repeat protein (double-referencing).

The target of assay [1] is T2, biotinylated extracellular domain of human CD33 (SEQ ID NO: 87), Fc and Avi tagged (human, UniProt P20138 18-259, biotinylated with BirA-GST (Avi tag)).
T2 construct: also called hCD33; human target hCD33
The assay is described as above.
From the text: as §1, §2

The target in assay [2] is T3, biotinylated extracellular domain of human CD123 (SEQ ID NO: 88), Fc and Avi tagged (human, UniProt P26951 19-303, biotinylated with BirA-GST (Avi tag)).
T3 construct: also called hCD123
T3 sequence: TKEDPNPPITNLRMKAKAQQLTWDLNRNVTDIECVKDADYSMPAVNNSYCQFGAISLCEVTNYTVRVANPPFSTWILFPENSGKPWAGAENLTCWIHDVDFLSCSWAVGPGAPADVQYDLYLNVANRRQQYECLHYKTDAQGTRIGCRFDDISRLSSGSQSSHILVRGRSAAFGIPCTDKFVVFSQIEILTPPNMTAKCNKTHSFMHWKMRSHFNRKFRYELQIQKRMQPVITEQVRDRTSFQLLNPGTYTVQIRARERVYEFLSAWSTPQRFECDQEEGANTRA
The description is as above.
From the text: as §1, §2

The target of assay [3] is T4, extracellular domain of human CD70 (SEQ ID NO: 89), hCD70-Fc-trimer, ACRO Biosystems (human, UniProt P32970 52-193, chemically biotinylated where the biotinylated form was used).
T4 construct: also called human CD70-Fc-trimer; Bio.CD70
T4 sequence: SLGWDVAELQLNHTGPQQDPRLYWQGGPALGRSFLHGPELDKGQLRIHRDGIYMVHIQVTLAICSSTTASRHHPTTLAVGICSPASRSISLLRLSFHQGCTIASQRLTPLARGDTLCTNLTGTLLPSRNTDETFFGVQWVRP
Described as above.
From the text: as §1, §2

The target in assay [4] is T5, Molm-13 N1 tumor cells (carrying CD123, CD33 and CD70) (human, UniProt P20138 18-364; P26951 19-378; P32970 1-193).
T5 construct: whole, on cells; Not a complex: three separate antigens on one cell; also called Molm-13 N1 cells
Put plainly: flow cytometry on Molm-13 N1 cells, 20 uM HSA. On the procedure: The determination of binding of several multispecific proteins to tumor cells was performed by Fluorescence Activated Cell Sorting (FACS) flow cytometry. Therefore, tumor cells (Molm-13 N1), were seeded at 100′000 cells per well in a 96 well plate. DARPin® protein #56, DARPin® protein #57, DARPin® protein #58, DARPin® protein #59, DARPin® protein #60, DARPin® protein #61 and DARPin® protein #62 were titrated down starting at 100 nM in 1:5 dilution ratio. Tumor cells were resuspended with diluted DARPin® proteins and incubated 60 minutes at 4° C. The assay was performed in PBS including 2% fetal bovine serum and human serum albumin 20 uM (HSA). After washing twice with Phosphate Buffer saline (PBS), DARPin® protein specific tumor cell binding was detected by adding unlabelled primary […] (anti-rabbit 1-1-1 antibody, CePower) at 2 ug/ml. An incubation step of at least 30 minutes at 4° C. followed. Afterwards, cells were washed with PBS and a secondary anti-rabbit antibody labelled with Alexa Fluor 647 antibody (ThermoFisher) at 2 ug/ml was added. The same incubation conditions applied. Finally, the cells were washed twice and resuspended in Cytofix fixation buffer (BD Biosciences) for 15 min at room temperature (RT). Median fluorescence intensities (MFI) of Alexa Fluor 647 DARPin® labelled cells were measured by Attune NxT (Thermo Fisher) using FlowJo software for analyses and GraphPad Prism 8 for data plotting.
In general terms: In flow cytometry, cells or beads pass a laser one at a time.

T5 sequence (P20138 18-364, one chain of several): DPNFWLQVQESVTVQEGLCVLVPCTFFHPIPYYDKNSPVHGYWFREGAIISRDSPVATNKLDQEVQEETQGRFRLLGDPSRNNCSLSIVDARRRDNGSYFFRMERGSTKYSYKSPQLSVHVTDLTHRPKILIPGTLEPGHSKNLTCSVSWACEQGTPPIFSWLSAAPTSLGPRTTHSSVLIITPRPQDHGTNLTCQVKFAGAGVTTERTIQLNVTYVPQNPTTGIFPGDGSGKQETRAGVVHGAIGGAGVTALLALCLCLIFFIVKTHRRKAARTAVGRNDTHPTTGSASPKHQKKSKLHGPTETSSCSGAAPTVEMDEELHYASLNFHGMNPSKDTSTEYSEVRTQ
T2 sequence (P20138 18-259 R69G): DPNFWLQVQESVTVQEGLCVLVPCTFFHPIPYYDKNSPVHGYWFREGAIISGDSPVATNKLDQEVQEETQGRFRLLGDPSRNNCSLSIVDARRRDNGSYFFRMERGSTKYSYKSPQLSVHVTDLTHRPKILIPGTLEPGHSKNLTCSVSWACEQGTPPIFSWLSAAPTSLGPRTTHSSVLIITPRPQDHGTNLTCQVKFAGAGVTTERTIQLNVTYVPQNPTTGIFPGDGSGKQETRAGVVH
T1 sequence (P02768 25-609 limits assumed): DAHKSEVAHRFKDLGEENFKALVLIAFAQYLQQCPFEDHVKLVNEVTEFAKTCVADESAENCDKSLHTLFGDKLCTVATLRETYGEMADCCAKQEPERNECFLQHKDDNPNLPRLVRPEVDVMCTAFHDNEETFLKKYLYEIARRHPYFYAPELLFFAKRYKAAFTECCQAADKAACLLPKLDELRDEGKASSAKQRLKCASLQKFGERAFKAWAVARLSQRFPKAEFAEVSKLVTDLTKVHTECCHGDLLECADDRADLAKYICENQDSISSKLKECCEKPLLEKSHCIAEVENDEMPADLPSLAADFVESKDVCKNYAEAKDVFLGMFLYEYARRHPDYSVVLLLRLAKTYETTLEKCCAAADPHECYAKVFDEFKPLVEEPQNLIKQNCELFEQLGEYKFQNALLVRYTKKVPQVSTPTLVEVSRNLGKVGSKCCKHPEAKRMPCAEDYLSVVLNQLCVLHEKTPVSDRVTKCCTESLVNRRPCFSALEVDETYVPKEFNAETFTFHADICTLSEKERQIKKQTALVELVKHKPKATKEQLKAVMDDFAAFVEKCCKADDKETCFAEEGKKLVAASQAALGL

B1: DARPin® protein #55 (designed binder)
chain: MRGSHHHHHHDLGYKLLQAAYDGQLDEVRILLKAGADVNAKDSRGQTPLHYAASIGHLEIVEVLLKAGADVNAKDDHGWTPLHLAAWSGHLEIVEVLLKAGADVNAQDQEGTTPADLAAVQGHQDIAEVLQKAAGSPTPTPTTPTPTPTTPTPTPTGSDLGKKLLEAALEGQLDEVRELLKAGADVNAKDQEGYTPLHLAAALGHLEIVEVLLKAGADVNAKDSIGRTPLHLAAYKGHLEIVEVLLKAGADVNAQDLLGETPADLAAEQGHQDIAEVLQKAAGSPTPTPTTPTPTPTTPTPTPTGSDLGVKLLRAAVHGQLDEVRILLKAGADVNAKDTDGETPLHYAAQFGHLEIVEVLLKAGADVNAKDAYGATPLHWAAWHGHLEIVEVLLKAGADVNAQDVSGATPADLAAKVGHQDIAEVLQKAAGSPTPTPTTPTPTPTTPTPTPTGSDLGQKLLEAAWAGQDDEVRELLKAGADVNAKNSRGWTPLHTAAQTGHLEIFEVLLKAGADVNAKDDKGVTPLHLAAALGHLEIVEVLLKAGADVNAQDSWGTTPADLAAKYGHEDIAEVLQKAAGSPTPTPTTPTPTPTTPTPTPTGSDLGKKLLEAARAGQDDEVRELLKAGADVNAKDYFSHTPLHLAARNGHLKIVEVLLKAGADVNAKDFAGKTPLHLAAADGHLEIVEVLLKAGADVNAQDIFGKTPADIAADAGHEDIAEVLQKAA
notes: CD70-CD123-CD33-CD3-HSA
For the molecule B1, the Kd (commonly a measure of binding affinity in units of concentration) with human serum albumin was determined as 7.5 nM; in assay [1], 9.6 nM; in assay [2], 13 nM; in assay [3], 0.38 nM.

B2: DARPin® protein #58 (designed binder)
chain: DLGKKLLEAARAGQDDEVRELLKAGADVNAKDYFSHTPLHLAARNGHLKIVEVLLKAGADVNAKDFAGKTPLHLAAADGHLEIVEVLLKAGADVNAQDIFGKTPADIAADAGHEDIAEVLQKAAGSPTPTPTTPTPTPTTPTPTPTGSDLGKKLLEAARAGQDDEVRELLKAGADVNAKDYFSHTPLHLAARNGHLKIVEVLLKAGADVNAKDFAGKTPLHLAAADGHLEIVEVLLKAGADVNAQDIFGKTPADIAADAGHEDIAEVLQKAAGSPTPTPTTPTPTPTTPTPTPTGSDLGIKLLTAAYDGQLDEVRILLKAGADVNAKDLRGQTPLHYAAGLGHLEIVEVLLKAGADVNAKDLHGWTPLHLAAWSGHLEIVEVLLKAGADVNAQDVEGVTPADLAAVQGHQDIAEVLQKAAGSPTPTPTTPTPTPTTPTPTPTGSDLGWKLLDAAEIGQLDEVRILLKAGADVNAKDKQGITPLHIAAAHGHLEIVEVLLKAGADVNAKDEIGRTPLHLAAFKGHLEIVEVLLKAGADVNAQDIIGETPADLAAVRGHQDIAEVLQKAAGSPTPTPTTPTPTPTTPTPTPTGSDLGVKLLLAAERGQLDEVRILLKAGADVNAKDIAEGYTPLHIAAYQGHLEIVEVLLKAGADVNAKDRYGKTPLHLAAIGGHLEIVEVLLKAGADVNAQDNKGSTPADLAADYGHQDIAEVLQKAAGSPTGSDLGQKLLEAAWAGQDDEVRELLKAGADVNAKNSRGWTPLHTAAQTGHLEIFEVLLKAGADVNAKNDKRVTPLHLAAALGHLEIVEVLLKAGADVNARDSWGTTPADLAAKYGHQDIAEVLQKAA
notes: HSA-HSA-CD70-CD123-CD33-CD3
In the case of B2, a half-maximal effect in assay [4] (EC50) was put at 0.17 nM.

B3: DARPin® protein #60 (designed binder)
chain: DLGKKLLEAARAGQDDEVRELLKAGADVNAKDYFSHTPLHLAARNGHLKIVEVLLKAGADVNAKDFAGKTPLHLAAADGHLEIVEVLLKAGADVNAQDIFGKTPADIAADAGHEDIAEVLQKAAGSPTPTPTTPTPTPTTPTPTPTGSDLGKKLLEAARAGQDDEVRELLKAGADVNAKDYFSHTPLHLAARNGHLKIVEVLLKAGADVNAKDFAGKTPLHLAAADGHLEIVEVLLKAGADVNAQDIFGKTPADIAADAGHEDIAEVLQKAAGSPTPTPTTPTPTPTTPTPTPTGSDLGIKLLTAAYDGQLDEVRILLKAGADVNAKDLRGQTPLHYAAGLGHLEIVEVLLKAGADVNAKDLHGWTPLHLAAWSGHLEIVEVLLKAGADVNAQDVEGVTPADLAAVQGHQDIAEVLQKAAGSPTPTPTTPTPTPTTPTPTPTGSDLGKKLLQAARAGQLDEVRELLKAGADVNAKDQYGRTPLHLAAIKGHLEIVEVLLKAGADVNAKDSLGYTPLHLAAVEGPLEIVEVLLKAGADVNAKDAYGQTPLHIAAAWGHLEIVEVLLKAVADVNAQDKSGKTPADLAARAGHQDIAEVLQKAAGSPTPTPTTPTPTPTTPTPTPTGSDLGVKLLLAAERGQLDEVRILLKAGADVNAKDIAEGYTPLHIAAYQGHLEIVEVLLKAGADVNAKDRYGKTPLHLAAIGGHLEIVEVLLKAGADVNAQDNKGSTPADLAADYGHQDIAEVLQKAAGSPTGSDLGQKLLEAAWAGQDDEVRELLKAGADVNAKNSRGWTPLHTAAQTGHLEIFEVLLKAGADVNAKNDKRVTPLHLAAALGHLEIVEVLLKAGADVNARDSWGTTPADLAAKYGHQDIAEVLQKAA
notes: HSA-HSA-CD70-CD123-CD33-CD3
B3: in assay [4], a half-maximal response (EC50) required 0.16 nM.

B4: DARPin® protein #59 (designed binder)
chain: DLGKKLLEAARAGQDDEVRELLKAGADVNAKDYFSHTPLHLAARNGHLKIVEVLLKAGADVNAKDFAGKTPLHLAAADGHLEIVEVLLKAGADVNAQDIFGKTPADIAADAGHEDIAEVLQKAAGSPTPTPTTPTPTPTTPTPTPTGSDLGKKLLEAARAGQDDEVRELLKAGADVNAKDYFSHTPLHLAARNGHLKIVEVLLKAGADVNAKDFAGKTPLHLAAADGHLEIVEVLLKAGADVNAQDIFGKTPADIAADAGHEDIAEVLQKAAGSPTPTPTTPTPTPTTPTPTPTGSDLGIKLLTAAYDGQLDEVRILLKAGADVNAKDLRGQTPLHYAAGLGHLEIVEVLLKAGADVNAKDLHGWTPLHLAAWSGHLEIVEVLLKAGADVNAQDVEGVTPADLAAVQGHQDIAEVLQKAAGSPTPTPTTPTPTPTTPTPTPTGSDLGKKLLEAALEGQLDEVRELLKAGADVNAKDQEGYTPLHLAAALGHLEIVEVLLKAGADVNAKDQIGRTPLHLAAYKGHLEIVEVLLKAGADVNAQDIIGQTPADLAAQRGHQDIAEVLQKAAGSPTPTPTTPTPTPTTPTPTPTGSDLGVKLLLAAERGQLDEVRILLKAGADVNAKDIAEGYTPLHIAAYQGHLEIVEVLLKAGADVNAKDRYGKTPLHLAAIGGHLEIVEVLLKAGADVNAQDNKGSTPADLAADYGHQDIAEVLQKAAGSPTGSDLGQKLLEAAWAGQDDEVRELLKAGADVNAKNSRGWTPLHTAAQTGHLEIFEVLLKAGADVNAKNDKRVTPLHLAAALGHLEIVEVLLKAGADVNARDSWGTTPADLAAKYGHQDIAEVLQKAA
notes: HSA-HSA-CD70-CD123-CD33-CD3
For the molecule B4, the EC50 (usually the concentration at which the effect is half-maximal) in assay [4] was found to be 0.19 nM.

For the origin of these results see patent publication US20240254229A1 (Molecular Partners, published 2024).
